Consider one substance from article PMC4922627.

Experiment [1] addresses TEV-cleaved ICP35 (White spot syndrome virus). Briefly: SDS-PAGE without boiling; purified protein loaded on 12% SDS-PAGE with and without boiling, Coomassie stain and Western blot; TEV-cleaved ICP35 concentrated to 10 mg/ml to induce oligomerization. A general note: A western blot detects proteins with antibodies after separation by electrophoresis.
Experiment [2] shares this target. Briefly: SEC; HiLoad 16/600 Superdex 200; 20 mM Tris-HCl pH 8.0, 200 mM NaCl, 5 mM MgSO4; peak fractions checked by SDS-PAGE. A general note: SEC sorts molecules by how far they enter the pores of the column.

As a reminder, the stoichiometry N is the number of molecules, sites or subunits per partner or assembly. Regarding TEV-cleaved ICP35 (domain or fragment), the stoichiometry N in experiment [1] and in experiment [2] was 2 throughout.
